In patent US20200102400A1:
Read-outs that look alike come from different tables or passages of the source.

Key:
FcγRs = test: cell-based or functional assay
[1] = target: FcγRIIIa-V158-Streptavidin (tetrameric) (human) (UniProt P08637)
[2] = target: FcγRIIIa-V158-Streptavidin (tetrameric) (human) (UniProt P08637); remark: listed apart in the source
[3] = target: FcγRIIIa-V158-GST (dimeric FcγRIIIaV158) (human) (UniProt P08637)
[4] = target: FcγRIIb-GST (dimeric FcγRIIb) (human) (UniProt P31994)
Chain of FcγRIIb-GST (dimeric FcγRIIb) (human) (P31994 43-217): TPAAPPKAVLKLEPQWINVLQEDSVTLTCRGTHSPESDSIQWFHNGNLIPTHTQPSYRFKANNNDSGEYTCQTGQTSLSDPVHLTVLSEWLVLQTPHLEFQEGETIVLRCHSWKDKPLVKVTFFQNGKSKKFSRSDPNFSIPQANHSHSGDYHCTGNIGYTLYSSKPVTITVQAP

[5] = target: C1q protein from human serum (human) (UniProt P02745); test: FACS, spheroplasts, 10 nM C1q-PE
Chain of C1q protein from human serum (human) (P02745 23-245, chain 1 of 3): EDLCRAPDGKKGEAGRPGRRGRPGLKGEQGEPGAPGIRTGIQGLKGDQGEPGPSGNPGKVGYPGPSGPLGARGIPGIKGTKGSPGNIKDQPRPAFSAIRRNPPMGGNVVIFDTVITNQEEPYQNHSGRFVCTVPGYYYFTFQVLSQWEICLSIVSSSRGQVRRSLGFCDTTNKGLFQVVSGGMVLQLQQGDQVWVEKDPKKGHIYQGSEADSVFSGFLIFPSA
Chain of C1q protein from human serum (human) (P02746 28-253, chain 2 of 3, further chain): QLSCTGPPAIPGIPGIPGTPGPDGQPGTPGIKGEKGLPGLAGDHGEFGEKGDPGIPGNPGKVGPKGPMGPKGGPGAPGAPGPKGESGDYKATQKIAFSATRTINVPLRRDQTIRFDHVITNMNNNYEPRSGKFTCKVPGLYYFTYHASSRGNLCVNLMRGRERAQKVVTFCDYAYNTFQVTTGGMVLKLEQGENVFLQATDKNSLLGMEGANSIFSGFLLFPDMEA
Chain of C1q protein from human serum (human) (P02747 29-245, chain 3 of 3, further chain): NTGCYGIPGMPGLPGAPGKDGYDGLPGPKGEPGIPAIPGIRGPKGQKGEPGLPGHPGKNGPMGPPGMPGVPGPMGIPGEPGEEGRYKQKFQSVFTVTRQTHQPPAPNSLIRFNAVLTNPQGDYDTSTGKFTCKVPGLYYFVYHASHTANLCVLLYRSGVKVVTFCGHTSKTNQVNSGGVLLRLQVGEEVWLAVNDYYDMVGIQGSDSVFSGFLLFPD

[6] = target: C1q protein from human serum (human) (UniProt P02745); test: FACS, cell display, 10 nM C1q-PE
[7] = target: C1q protein from human serum (human) (UniProt P02745); test: FACS, 10 nM C1q-PE; reference itself
[8] = target: C1q protein from human serum (human) (UniProt P02745); test: FACS, spheroplasts, 10 nM C1q-PE, high-salt buffer (FIG. 3C)

Chain of FcγRIIIa-V158-Streptavidin (tetrameric) (human) (P08637 17-208 F176V): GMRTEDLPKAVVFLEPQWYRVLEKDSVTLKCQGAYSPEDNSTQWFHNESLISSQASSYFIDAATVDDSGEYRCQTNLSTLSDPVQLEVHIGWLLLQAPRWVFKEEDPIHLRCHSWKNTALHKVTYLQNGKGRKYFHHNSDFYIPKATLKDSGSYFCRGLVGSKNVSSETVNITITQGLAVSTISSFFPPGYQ
Chain of FcγRIIIa-V158-GST (dimeric FcγRIIIaV158) (human) (P08637 17-208 F176V): as above

ADCC EC50, Raji targets, PBMC (FcγRs)	Substance	MFI [1]	MFI [2]	MFI [3]	MFI [4]	MFI [5]	MFI [6]	Increasing Fold [7]	MFI [8]
2.11 nM	Rituximab (glycosylated wild-type IgG1) (antibody)								
	wild-type aglycosylated IgG displayed on E. coli spheroplasts (antibody)	6.44	36.6	3.8	4.5	54.7	23.5	1 fold	14.9
